Test results taken from paper PMC5536962 (Cell reports, 2015).

T1: GST-Mcm10 (yeast, UniProt P32354 1-571)
T1 sequence (looked up): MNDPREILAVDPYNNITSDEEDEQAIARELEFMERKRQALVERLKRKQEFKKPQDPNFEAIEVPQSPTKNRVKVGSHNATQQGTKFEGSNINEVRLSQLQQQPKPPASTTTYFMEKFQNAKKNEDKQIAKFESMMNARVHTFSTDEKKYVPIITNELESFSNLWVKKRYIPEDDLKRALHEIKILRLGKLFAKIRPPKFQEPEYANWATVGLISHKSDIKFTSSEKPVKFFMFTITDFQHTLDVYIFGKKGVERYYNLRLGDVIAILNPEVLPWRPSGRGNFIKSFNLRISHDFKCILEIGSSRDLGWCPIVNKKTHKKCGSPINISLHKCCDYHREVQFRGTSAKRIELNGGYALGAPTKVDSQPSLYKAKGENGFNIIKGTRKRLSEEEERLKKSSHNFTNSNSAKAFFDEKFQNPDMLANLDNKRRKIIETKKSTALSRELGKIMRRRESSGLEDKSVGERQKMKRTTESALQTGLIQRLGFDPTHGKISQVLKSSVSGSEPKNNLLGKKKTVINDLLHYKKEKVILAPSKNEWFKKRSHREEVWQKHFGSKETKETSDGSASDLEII

T2: Mcm10 (GST tag removed) (yeast, UniProt P32354 1-571)
T2 sequence (looked up): T1 sequence (looked up)

B1: 6His-Mcm2 (1-299) (domain or fragment, yeast, UniProt P29469 1-299, looked up)
chain: MSDNRRRRREEDDSDSENELPPSSPQQHFRGGMNPVSSPIGSPDMINPEGDDNEVDDVPDIDEVEEQMNEVDLMDDNMYEDYAADHNRDRYDPDQVDDREQQELSLSERRRIDAQLNERDRLLRNVAYIDDEDEEQEGAAQLDEMGLPVQRRRRRRQYEDLENSDDDLLSDMDIDPLREELTLESLSNVKANSYSEWITQPNVSRTIARELKSFLLEYTDETGRSVYGARIRTLGEMNSESLEVNYRHLAESKAILALFLAKCPEEMLKIFDLVAMEATELHYPDYARIHSEIHVRISD
B2: GST-Mcm4 (1-471) (domain or fragment, yeast, UniProt P30665 1-471, looked up)
chain: MSQQSSSPTKEDNNSSSPVVPNPDSVPPQLSSPALFYSSSSSQGDIYGRNNSQNLSQGEGNIRAAIGSSPLNFPSSSQRQNSDVFQSQGRQGRIRSSASASGRSRYHSDLRSDRALPTSSSSLGRNGQNRVHMRRNDIHTSDLSSPRRIVDFDTRSGVNTLDTSSSSAPPSEASEPLRIIWGTNVSIQECTTNFRNFLMSFKYKFRKILDEREEFINNTTDEELYYIKQLNEMRELGTSNLNLDARNLLAYKQTEDLYHQLLNYPQEVISIMDQTIKDCMVSLIVDNNLDYDLDEIETKFYKVRPYNVGSCKGMRELNPNDIDKLINLKGLVLRSTPVIPDMKVAFFKCNVCDHTMAVEIDRGVIQEPARCERIDCNEPNSMSLIHNRCSFADKQVIKLQETPDFVPDGQTPHSISLCVYDELVDSCRAGDRIEVTGTFRSIPIRANSRQRVLKSLYKTYVDVVHVKKVSD
B3: GST-Mcm6 (1-439) (domain or fragment, yeast, UniProt P53091 1-439, looked up)
chain: MSSPFPADTPSSNRPSNSSPPPSSIGAGFGSSSGLDSQIGSRLHFPSSSQPHVSNSQTGPFVNDSTQFSSQRLQTDGSATNDMEGNEPARSFKSRALNHVKKVDDVTGEKVREAFEQFLEDFSVQSTDTGEVEKVYRAQIEFMKIYDLNTIYIDYQHLSMRENGALAMAISEQYYRFLPFLQKGLRRVVRKYAPELLNTSDSLKRSEGDEGQADEDEQQDDDMNGSSLPRDSGSSAAPGNGTSAMATRSITTSTSPEQTERVFQISFFNLPTVHRIRDIRSEKIGSLLSISGTVTRTSEVRPELYKASFTCDMCRAIVDNVEQSFKYTEPTFCPNPSCENRAFWTLNVTRSRFLDWQKVRIQENANEIPTGSMPRTLDVILRGDSVERAKPGDRCKFTGVEIVVPDVTQLGLPGVKPSSTLDTRGISKTTEGLNSGVTG

Experiments:
Test in all cases: pull-down
[1] = biological target: T1, GST-Mcm10
[2] = biological target: B2
[3] = biological target: B3
[4] = biological target: T2, Mcm10 (GST tag removed)

Binder	binding result [1]	binding result [2]	binding result [3]	binding result [4]
B1	binds	binds	binds	–
B2	–	–	–	binds
B3	–	–	–	binds
